Results reported in publication PMC11270187 (2024).
Where two headings read alike, the source gives them in different places.

Columns and labels:
HLA-DR on BJAB cells [1] = target: T1, HLA-DR on BJAB cells (human (endogenous in BJAB), UniProt P01903 26-254; P01911 30-266); assay: FACS
[2] = target: T2, recombinant HLA-DR (uncleaved) (human, UniProt P01903 28-206; P01911 30-219); assay: BLI; apparent
HLA-DR on BJAB cells [3] = target: T1, HLA-DR on BJAB cells; assay: FACS; remark: listed apart in the source
HLA-DR on BJAB cells [4] = target: T1, HLA-DR on BJAB cells; assay: FACS; remark: listed apart in the source
[5] = target: T2, recombinant HLA-DR (uncleaved); assay: BLI; apparent; remark: listed apart in the source
[6] = target: T2, recombinant HLA-DR (uncleaved); assay: BLI; apparent; remark: listed apart in the source

Binder | EC50 (HLA-DR on BJAB cells [1]) [nM] | EC50 (HLA-DR on BJAB cells [4]) [nM] | also measured
humanized 44H10 version 17 IgG (antibody, V domains shown) VH: QVTLKESGPVLVKPTETLTLTCTVSGFSLTSYGVHWIRQPPGKALEWLAVIWAGGSISYSTSLMSRLTISKDTSKSQVVLTMTNMDPVDTATYYCARAYGDYVHYAMDYWGQGTLVTVSS VL: DIQMTQSPSSLSASVGDRVTITCRASQEISGYLTWLQQKPGKAPKLLIYAASTLDSGVPSRFSGSGSGTDFTLTISSLQPEDFATYYCLQYTNYPLTFGQGTKLEIK | 43 | – | –
humanized 44H10 version 21 IgG (V17 with light chain S60K and G66R back-mutations) (antibody, V domains shown) VH: QVTLKESGPVLVKPTETLTLTCTVSGFSLTSYGVHWIRQPPGKALEWLAVIWAGGSISYSTSLMSRLTISKDTSKSQVVLTMTNMDPVDTATYYCARAYGDYVHYAMDYWGQGTLVTVSS VL: DIQMTQSPSSLSASVGDRVTITCRASQEISGYLTWLQQKPGKAPKLLIYAASTLDSGVPKRFSGSRSGTDFTLTISSLQPEDFATYYCLQYTNYPLTFGQGTKLEIK | – | – | Kd [2]: 95 nM; EC50 (HLA-DR on BJAB cells [3]): 14 nM
humanized 44H10 version 22 IgG (antibody, V domains shown) VH: QVQLQESGPGLVKPSETLSLTCTVSGFSLTSYGVHWIRQPPGKGLEWIGVIWAGGSINYNSALMSRVTISKDTSKNQVSLKLSSVTAADTAVYYCARAYGDYVHYAMDYWGQGTLVTVSS VL: DIQMTQSPSSLSASVGDRVTITCRASQEISGYLTWLQQKPGKAPKLLIYAASTLDSGVPKRFSGSRSGTDFTLTISSLQPEDFATYYCLQYTNYPLTFGQGTKLEIK | – | 1.7 | Kd [5]: 29 nM
parental 44H10 IgG (antibody, V domains shown) VH: QVQLKESGPGLVAPSQSLSITCTVSGFSLTSYGVHWVRQPPGKGLEWLGVIWAGGSINYNSALMSRLSISKDNFKSQVFLKMSSLQTDDTAMYYCARAYGDYVHYAMDYWGQGTSVTASS VL: DIQMTQSPSSLSASLGQRVSLTCRASQEISGYLTWLQQKPDGTIKRLVYAASTLDSGVPKRFSGSRSGSDYSLTISSLESEDFADYYCLQYTNYPLTFGAGTKLELK | 0.8 | 1 | Kd [6]: 2.2 nM
